Values quoted from earlier work as cited in PMC8745080.

Columns and labels:
[1] = biological target: His98 (UniProt position 99, SEKFSHEQEVK); experiment: not stated (the review mentions pH-dependent NMR measurements on cL-BABP in the same section); conditions: apo (ligand-free), folded
[2] = biological target: T1, His98 (UniProt position 99, NFPNYHQTSEI); experiment: NMR; conditions: apo (ligand-free), folded
[3] = biological target: T1, His98; experiment: not stated (NMR inferred from the apo data of the same reference); conditions: holo (bile-salt-bound; identity of the bound bile salts not given), folded

| Substance | pKa [1] | pKa [2] | pKa [3] |
| --- | --- | --- | --- |
| Chicken liver bile acid-binding protein (cL-BABP; liver basic fatty acid-binding protein) (Gallus gallus) | 4.7 | – | – |
| Human ileal bile acid-binding protein (hI-BABP; gastrotropin, FABP6), common isoform (Homo sapiens) | – | 6.6 | 7.0 |
